Assay results taken from the supplement of paper PMC9170038.

Test system: MS2 coat protein
Assay: apparent KD of MS2 coat protein; designed switch direction (-1 OFF switch, 1 ON switch): -1; higher = weaker reporter binding
Procedure, shortened: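 Normalised cluster fluorescence was curve-fitted, and each design's median over clusters is its apparent KD. Before this, SNAP-549-labelled MS2 coat protein was titrated from 0.7 or 1.5 nM, doubling to 3 µM, over RNA switches transcribed on Illumina chips by stalled E. coli RNA polymerase. Titrations had no input, 200 uM small-molecule ligand, or an oligonucleotide input, and steps lasted 0.8–1.5 h (lowest) to 10–20 min (highest).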

[1] = Eterna round: R95, input ligand: microRNA oligo, concentration not stated
[2] = input ligand: microRNA oligo, concentration not stated
[3] = Eterna round: R95, input ligand: FMN 200 uM
[4] = Eterna round: R95, input ligand: none

Row | Sequence | apparent KD of MS2 coat protein (input ligand: FMN 200 uM) | apparent KD of MS2 coat protein (input ligand: none) | apparent KD of MS2 coat protein [1] | apparent KD of MS2 coat protein [2] | apparent KD of MS2 coat protein [3] | apparent KD of MS2 coat protein [4]
1 | CCGAGCAAGGUGAGGAUAUUAAGAGCUACAGAGCAUGAGAAGGCACAUGAGGAUCACCCAUGUUACUACAGGGA [Eternabot (L1) Solution 66] (Eterna round: R97, puzzle: Brourd's mod of Exclusion 4) | 54.9 nM | 54 nM |  |  |  | 
2 | CCGCCGCAAGGAUAUACUUGCGGUGGUGUUCGAGUUCUUUUACUUGAGGAUCACCCAAGUAGAAGGUGCAAAAC [jl-ex2.4.55 ViennaUCT mod] (Eterna round: R97, puzzle: Exclusion 2) | 11.9 nM | 11.5 nM |  |  |  | 
3 | GAAAACGCAGAGGAUAUAUCAGAUCAAAGCUGCAUAGAAGGCUGCACAUGAGGAUCACCCAUGUGGUCUUUAAA [jl-ex6-4.00 ViennaUCT mod] (Eterna round: R97, puzzle: Exclusion 6) | 218 nM | 22 nM |  |  |  | 
4 | GGUGCGUUUGUGAGGAUAUGCUGGUCCUUGGUUCCGCAGAAGGCACAUGAGGAUCACCCAUGUGGUGUCGUACC [salish99_Bmod_Ex4_044] (puzzle: Brourd's mod of Exclusion 4) |  |  | 148 nM |  |  | 
5 | GUGUUUGAUGAGGAUAUCGAUGUGGGUAUAUAGCGAGAAGGCAUUACAUGAGGAUCACCCAUGUAGUGUGGGUU [JR_Ex6_Sub024] (Eterna round: R97, puzzle: Exclusion 6) | 33.3 nM | 35.6 nM |  |  |  | 
6 | UGCUACGGAGGAUAUACAUGAGGAUCACCCAUGUGUGAGAUUUGGCCGAGAGGCCAAUGUAGAAGGCCGUAGCU [jl-ex3-4.20 jl mod] (Eterna round: R97, puzzle: Exclusion 3) | 371 nM | 35.9 nM |  |  |  | 
7 | GGAUCUUGGGUCAGGAUAUGCUGAUAGUUAUGUCAGCAGAAGGGACAUGAGGAUCACCCAUGUGCUCGGUUUUG [Magic-18] (puzzle: Brourd's mod of Exclusion 4) |  |  | 11.3 nM |  |  | 
8 | CUUUGCACGCUGCGGUCCUACAUGAGGAUCACCCAUGUGGUCUGGUGGCGUGGGUCGCCGGACUUGGCUCGUCUUGA [salish99_S_TOV1_R5_040] (Eterna round: R97, puzzle: Sensor, turn-off variant 1) | 18.5 nM | 18.4 nM |  |  |  | 
9 | UUCUUUACACGAGGAUAUCAUACAUGAGGAUCACCCAUGUGGCUGUGUCUGUUUUUAUGUAUUAUUGAGAAGGCGUUUUUCUUU [JR_ExcNG2_Sub075] (Eterna round: R96, puzzle: Exclusion NG 2) | 105 nM | 33 nM |  | 28.3 nM |  | 
10 | CCGUAGUCAGGAUAUACAUGAGGAUCACCCAUGUAAAAUUUUAAUUUAAUUUGAAGGUGUAGAAGGGACCAGUC [Ex3 #27] (Eterna round: R97, puzzle: Exclusion 3) | 34.9 nM | 33.3 nM |  |  |  | 
11 | GCAACUACGGAUCUCAUCAACAUGAGGAUCACCCAUGUAGAAUGCGUACAAGCUUUUUGUUCUGGCAUCCCAUAGUC [Eternabot (L2) Solution 35] (Eterna round: R97, puzzle: Sensor, turn-off variant 1) | 63 nM | 65.3 nM |  |  |  | 
12 | GGAGAGGUAGGAUAUGGACCUUAGAACAUGAGGAUCACCCAUGUAGGACCACAUGAAAUGCCAGAAGGACCAGUCC [AK-MS2ROC-r4-exclusion5-5] (Eterna round: R97, puzzle: Exclusion 5) | 153 nM | 145 nM |  |  |  | 
13 | CUGGUCCGAGGAUAUAUUAAGUGAAACAUGAGGAUCACCCAUGUUAUUUGAUGGAUGAAAAUAGAAGGCGGACUAG [Mat - Exclusion 5 - JL mod - D58] (puzzle: Exclusion 5) |  |  | 41.1 nM |  | 22.9 nM | 45.2 nM
14 | GAGAAGGUAGGAUAUACGAAGAAAAAGGGUAGAAUAAGAACACAUGAGGAUCACCCAUGUAGAAGGACCAAGAG [Mat - Exclusion 2 - Mod of my Tesla design - D18] (puzzle: Exclusion 2) |  |  | 18.6 nM |  | 37.1 nM | 14.7 nM
15 | GGAGUGUGAGGAUAUAUGGUGAAGGUGAAGAGAGAGGAGGAGUAGAAGGUACAUGAGGAUCACCCAUGUUUAGG [JR_Exclu4_Sub072] (puzzle: Exclusion 4) |  |  | 38.5 nM |  |  | 
16 | UACCUGAGGCAAAGCUUUAGGUAAACAUGAGGAUCACCCAUGUAGGAUAUGGUAGGCAAAGCUUACCAGAAGGACAUGAAAAUU [Mat - Exclusion NG 3 - Mod of JL - D36] (Eterna round: R96, puzzle: Exclusion NG 3) | 333 nM | 87.8 nM |  | 53.3 nM |  | 
17 | AAAUGCAAGUAAAGAUCCUACAUGAGGAUCACCCAUGUGCUCGUCUUAUAAAGUACUAUCACGAAAGUGAUAGUACA [Sensor 3, v1 - 21] (puzzle: Sensor v3, turn-off variant 1) |  |  | 30.2 nM |  | 161 nM | 211 nM
